According to patent US6391584B1, “Expression-cloning method for identifying target proteins for eukaryotic tyrosine kinases and novel target proteins” (New York University Medical Center, priority 1991, dated 2002):

Molecular target: T1, EGFR (Homo sapiens, UniProt P00533)
T1 construct: Full length EGFR was immunoprecipitated with Mab108, and allowed to autophosphorylate; expressed in transfected cells; host or cells: NIH-3T3 cells transfected with wild-type EGFR (HER14)
Experiment: Binding of PLC-γ to immunoprecipitated, autophosphorylated full length EGFR; fraction remaining bound after washes
Settings: Mean+/−SEM, n=4; anti PLC-γ blot with (125I)Protein A, bands quantitated in a γ counter
Procedure: FIG. 11 is a gel pattern showing that phosphorylation of PLC-γ reduces its binding to the EGF receptor. Full length EGFR was immunoprecipitated with Mab108, and allowed to autophosphorylate. Lysate from PLC-γ overexpressing 3T-P1 cells was added and mixed for 90 min at 4° C. After binding, ATP was added to one half of the samples allowing the PLC-γ molecules to be phosphorylated by the EGF receptor. SDS-PAGE sample buffer-was then added to one half of the EGFR-PLC-γ complexes (NO WASH, left panel) and directly loaded onto the 6% gel. The other half was washed three times with HNTG and then loaded on the gel (WASH, right panel. After running duplicate samples on SDS-PAGE, the proteins were transferred to nitrocellulose and probed with anti PLC-γ and (^125I)Protein A. The bands were subsequently cut from the nitrocellulose and quantitated in a γ counter. After three washes with HNTG, 50+/−5% (Mean+/−SEM, n=4) of the non-phosphorylated PLC-γ remained bound to the EGFR while only 22+/−4% of the phosphorylated PLC-γ remained (exposure time: 12 h).
The techniques used are described in several references from the present inventors, laboratory (Margolis, B. L. et al., J. Biol. Chem. 264: 10667-10671 (1989); Cell 57:1101-1107 (1989)). […]

B1: phosphorylated PLC-γ: PLC-γ from 3T-P1 cell lysate phosphorylated by the EGF receptor after addition of ATP (protein, UniProt Q62077 2-1302, looked up)
1-phosphatidylinositol …: AGVATPCANGCGPGAPSEAEVLHLCRSLEVGTVMTLFYSKKSQRPERKTFQVKLETRQITWSRGADKIEGSIDIREIKEIRPGKTSRDFDRYQEDPAFRPDQSHCFVILYGMEFRLKTLSLQATSEDEVNMWIKGLTWLMEDTLQAATPLQIERWLRKQFYSVDRNREDRISAKDLKNMLSQVNYRVPNMRFLRERLTDLEQRSGDITYGQFAQLYRSLMYSAQKTMDLPFLETNALRTGERPEHCQVSLSEFQQFLLEYQGELWAVDRLQVQEFMLSFLRDPLREIEEPYFFLDELVTFLFSKENSVWNSQLDAVCPDTMNNPLSHYWISSSHNTYLTGDQFSSESSLEAYARCLRMGCRCIELDCWDGPDGMPVIYHGHTLTTKIKFSDVLHTIKEHAFVASEYPVILSIEDHCSIAQQRNMAQHFRKVLGDTLLTKPVDIAADGLPSPNQLRRKILIKHKKLAEGSAYEEVPTSVMYSENDISNSIKNGILYLEDPVNHEWYPHYFVLTSSKIYYSEETSSDQGNEDEEEPKEASSSTELHSSEKWFHGKLGAGRDGRHIAERLLTEYCIETGAPDGSFLVRESETFVGDYTLSFWRNGKVQHCRIHSRQDAGTPKFFLTDNLVFDSLYDLITHYQQVPLRCNEFEMRLSEPVPQTNAHESKEWYHASLTRAQAEHMLMRVPRDGAFLVRKRNEPNSYAISFRAEGKIKHCRVQQEGQTVMLGNSEFDSLVDLISYYEKHPLYRKMKLRYPINEEALEKIGTAEPDYGALYEGRNPGFYVEANPMPTFKCAVKALFDYKAQREDELTFTKSAIIQNVEKQDGGWWRGDYGGKKQLWFPSNYVEEMINPAVLEPEREHLDENSPLGDLLRGVLDVPACQIAIRPEGKNNRLFVFSISMPSVAQWSLDVAADSQEELQDWVKKIREVAQTADARLTEGKMMERRKKIALELSELVVYCRPVPFDEEKIGTERACYRDMSSFPETKAEKYVNKAKGKKFLQYNRLQLSRIYPKGQRLDSSNYDPLPMWICGSQLVALNFQTPDKPMQMNQALFMAGGHCGYVLQPSTMRDEAFDPFDKSSLRGLEPCVICIEVLGARHLPKNGRGIVCPFVEIEVAGAEYDSTKQKTEFVVDNGLNPVWPAKPFHFQISNPEFAFLRFVVYEEDMFSDQNFLAQATFPVKGLKTGYRAVPLKNNYSEDLELASLLIKIDIFPAKENGDLSPFSGISLRERASDASSQLFHVRAREGSFEARYQQPFEDFRISQEHLADHFDSRERSTSDGPSSATNLIEDPLHDKLWKCSL
modifications: tyrosine phosphorylated by EGF receptor
notes: PLC-γ from 3T-P1 cell lysate phosphorylated by the EGF receptor after addition of ATP
PLC-γ remaining bound to the EGFR after three washes with HNTG: 22+/−4%
